T1: RAD51AP1 WT (UniProt Q96B01 1-352)
T1 sequence: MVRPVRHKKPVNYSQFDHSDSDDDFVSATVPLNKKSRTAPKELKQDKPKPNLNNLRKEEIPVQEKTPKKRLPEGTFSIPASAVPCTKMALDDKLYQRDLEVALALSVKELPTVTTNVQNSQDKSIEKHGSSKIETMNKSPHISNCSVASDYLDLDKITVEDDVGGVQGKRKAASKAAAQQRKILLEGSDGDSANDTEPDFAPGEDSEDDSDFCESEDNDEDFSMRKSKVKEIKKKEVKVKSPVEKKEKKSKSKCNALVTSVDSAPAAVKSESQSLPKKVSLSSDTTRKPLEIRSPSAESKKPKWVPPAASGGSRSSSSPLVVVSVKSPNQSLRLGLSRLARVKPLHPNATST


Target: T1, RAD51AP1 WT
Test: EMSA

Binder	binding result
63-nt ssRNA (ssRNA) RNA: AACUUGGUCUGACAGUUACCAAUGCUUAAUCAGUGAGGCACCUAUCUCAGCGAUCUGUCUAUU	binds
50-nt DNA-RNA hybrid (DNA:RNA) DNA: ATCATCACCATAACGTCGATGTATCAACTTCGATTAGTCACACCAATTAA RNA: UUAAUUGGUGUGACUAAUCGAAGUUGAUACAUCGACGUUAUGGUGAUGAU	binds

From PMC8855348
